In article PMC5344783 (Molecular microbiology, 2017):

Assays:
Assay in all cases: co-IP
GpsB-L-FLAG^3 = biological target: T1, GpsB-L-FLAG^3 (Streptococcus pneumoniae (strain D39 …, UniProt Q8DR57 1-109))
T1 sequence: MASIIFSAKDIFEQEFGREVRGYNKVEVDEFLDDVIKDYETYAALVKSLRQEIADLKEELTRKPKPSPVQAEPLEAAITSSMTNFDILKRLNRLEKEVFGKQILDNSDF

StkP-FLAG^2 = biological target: T2, StkP-FLAG^2 (Streptococcus pneumoniae (strain D39 …, UniProt Q8DNS0 1-659))
T2 sequence: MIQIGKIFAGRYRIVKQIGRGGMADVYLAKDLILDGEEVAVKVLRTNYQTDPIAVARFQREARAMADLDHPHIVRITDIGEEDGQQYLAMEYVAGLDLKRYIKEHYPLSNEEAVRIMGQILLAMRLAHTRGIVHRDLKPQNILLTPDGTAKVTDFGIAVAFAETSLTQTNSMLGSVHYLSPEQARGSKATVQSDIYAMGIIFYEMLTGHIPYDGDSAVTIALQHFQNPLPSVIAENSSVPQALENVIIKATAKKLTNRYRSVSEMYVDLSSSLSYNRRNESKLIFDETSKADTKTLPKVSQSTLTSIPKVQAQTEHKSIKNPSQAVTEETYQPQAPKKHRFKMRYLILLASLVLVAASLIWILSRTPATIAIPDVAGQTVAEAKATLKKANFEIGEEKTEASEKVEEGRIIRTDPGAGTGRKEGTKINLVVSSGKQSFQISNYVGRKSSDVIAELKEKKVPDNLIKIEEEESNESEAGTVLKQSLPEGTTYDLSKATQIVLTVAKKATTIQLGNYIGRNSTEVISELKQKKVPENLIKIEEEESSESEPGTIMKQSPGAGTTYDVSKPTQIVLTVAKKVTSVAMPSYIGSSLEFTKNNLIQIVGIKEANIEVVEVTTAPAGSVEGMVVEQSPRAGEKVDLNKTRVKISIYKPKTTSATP

EzrA-L-FLAG^3 = biological target: T3, EzrA-L-FLAG^3 (Streptococcus pneumoniae (strain D39 …, UniProt Q8DQE5 1-575))
T3 sequence: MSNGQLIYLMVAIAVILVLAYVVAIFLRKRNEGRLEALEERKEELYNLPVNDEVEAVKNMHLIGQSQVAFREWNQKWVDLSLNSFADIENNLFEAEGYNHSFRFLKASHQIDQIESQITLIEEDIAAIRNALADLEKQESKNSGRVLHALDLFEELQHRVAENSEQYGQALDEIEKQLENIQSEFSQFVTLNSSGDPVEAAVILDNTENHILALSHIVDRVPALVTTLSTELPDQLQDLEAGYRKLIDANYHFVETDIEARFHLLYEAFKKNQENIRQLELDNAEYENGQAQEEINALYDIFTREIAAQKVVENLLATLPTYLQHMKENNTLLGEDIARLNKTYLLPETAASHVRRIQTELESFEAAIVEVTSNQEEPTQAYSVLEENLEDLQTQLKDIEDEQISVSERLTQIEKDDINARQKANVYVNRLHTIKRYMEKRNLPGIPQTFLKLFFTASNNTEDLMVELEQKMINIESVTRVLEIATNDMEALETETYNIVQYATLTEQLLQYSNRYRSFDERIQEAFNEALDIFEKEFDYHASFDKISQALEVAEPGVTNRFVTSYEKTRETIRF

Binder	ratio of prey protein band, GpsB-L-FLAG^3 bait to GpsB^+ control (GpsB-L-FLAG^3)	ratio of prey protein band, StkP-FLAG^2 bait to StkP^+ control (StkP-FLAG^2)	ratio of prey protein band, EzrA-L-FLAG^3 bait to EzrA^+ control (EzrA-L-FLAG^3)
bPBP2b-HA (enzyme) MRKFNSHSIPIRLNLLFSIVILLFMTIIGRLLYMQVLNKDFYEKKLASASQTKITSSSARGEIYDASGKPLVENTLKQVVSFTRSNKMTATDLKETAKKLLTYVSISSPNLTERQLADYYLADPEIYKKIVEALPSEKRLDSDGNRLSESELYNNAVDSVQTSQLNYTEDEKKEIYLFSQLNAVGNFATGTIATDPLNDSQVAVIASISKEMPGISISTSWDRKVLETSLSSIVGSVSSEKAGLPAEEAEAYLKKGYSLNDRVGTSYLEKQYEETLQGKRSVKEIHLDKYGNMESVDTIEEGSKGNNIKLTIDLAFQDSVDALLKSYFNSELENGGAKYSEGVYAVALNPKTGAVLSMSGIKHDLKTGELTPDSLGTVTNVFVPGSVVKAATISSGWENGVLSGNQTLTDQSIVFQGSAPINSWYTQAYGSFPITAVQALEYSSNTYMVQTALGLMGQTYQPNMFVGTSNLESAMEKLRSTFGEYGLGTATGIDLPDESTGFVPKEYSFANYITNAFGQFDNYTPMQLAQYVATIANNGVRVAPRIVEGIYGNNDKGGLGDLIQQLQPTEMNKVNISDSDMSILHQGFYQVAHGTSGLTTGRAFSNGALVSISGKTGTAESYVADGQQATNTNAVAYAPSDNPQIAVAVVFPHNTNLTNGVGPSIARDIINLYQKYHPMN	18.3 ratio	8.1 ratio	
MreC (natural protein) MNRFKKSKYVIIVFVTVLLVSALLATTYSSTIVTKLGDGISLVDRVVQKPFQWFDSVKSDLAHLTRTYNENESLKKQLYQLEVKSNEVESLKTENEQLRQLLDMKSKLQATKTLAADVIMRSPVSWKQELTLDAGRSKGASENMLAIANGGLIGSVSKVEENSTIVNLLTNTENADKISVKIQHGSTTIYGIIIGYDKENDVLKISQLNSNSDISAGDKVTTGGLGNFNVADIPVGEVVATTHSTDYLTREVTVKLSADTHNVDVIELVGNS	6.2 ratio	8.5 ratio	
FtsZ-Myc (natural protein) MTFSFDTAAAQGAVIKVIGVGGGGGNAINRMVDEGVTGVEFIAANTDVQALSSTKAETVIQLGPKLTRGLGAGGQPEVGRKAAEESEETLTEAISGADMVFITAGMGGGSGTGAAPVIARIAKDLGALTVGVVTRPFGFEGSKRGQFAVEGINQLREHVDTLLIISNNNLLEIVDKKTPLLEALSEADNVLRQGVQGITDLITNPGLINLDFADVKTVMANKGNALMGIGIGSGEERVVEAARKAIYSPLLETTIDGAEDVIVNVTGGLDLTLIEAEEASQIVNQAAGQGVNIWLGTSIDESMRDEIRVTVVATGVRQDRVEKVVAPQARSATNYRETVKPAHSHGFDRHFDMAETVELPKQNPRRLEPTQASAFGDWDLRRESIVRTTDSVVSPVERFEAPISQDEDELDTPPFFKNR			15 ratio
aPBP2a-HA^4 (enzyme) MKLDKLFEKFLSLFKKETSELEDSDSTILRRSRSDRKKLAQVGPIRKFWRRYHLTKIILILGLSAGLLVGIYLFAVAKSTNVNDLQNALKTRTLIFDREEKEAGALSGQKGTYVELTDISKNLQNAVIATEDRSFYKNDGINYGRFFLAIVTAGRSGGGSTITQQLAKNAYLSQDQTVERKAKEFFLALELSKKYSKEQILTMYLNNAYFGNGVWGVEDASKKYFGVSASEVSLDQAATLAGMLKGPELYNPLNSVEDSTNRRDTVLQNMVAAGYIDKNQETEAAEVDMTSQLHDKYEGKISDYRYPSYFDAVVNEAVSKYNLTEEEIVNNGYRIYTELDQNYQANMQIVYENTSLFPRAEDGTFAQSGSVALEPKTGGVRGVVGQVADNDKTGFRNFNYATQSKRSPGSTIKPLVVYTPAVEAGWALNKQLDNHTMQYDSYKVDNYAGIKTSREVPMYQSLAESLNLPAVATVNDLGVDKAFEAGEKFGLNMEKVDRVLGVALGSGVETNPLQMAQAYAAFANEGLMPEAHFISRIENASGQVIASHKNSQKRVIDKSVADKMTSMMLGTFTNGTGISSSPADYVMAGKTGTTEAVFNPEYTSDQWVIGYTPDVVISHWLGFPTTDENHYLAGSTSNGAAHVFRNIANTILPYTPGSTFTVENAYKQNGIAPANTKRQVQTNDNSQTDDNLSDIRGRAQSLVDEASRAISDAKIKEKAQTIWDSIVNLFR	4 ratio		
EzrA-HA (natural protein) MSNGQLIYLMVAIAVILVLAYVVAIFLRKRNEGRLEALEERKEELYNLPVNDEVEAVKNMHLIGQSQVAFREWNQKWVDLSLNSFADIENNLFEAEGYNHSFRFLKASHQIDQIESQITLIEEDIAAIRNALADLEKQESKNSGRVLHALDLFEELQHRVAENSEQYGQALDEIEKQLENIQSEFSQFVTLNSSGDPVEAAVILDNTENHILALSHIVDRVPALVTTLSTELPDQLQDLEAGYRKLIDANYHFVETDIEARFHLLYEAFKKNQENIRQLELDNAEYENGQAQEEINALYDIFTREIAAQKVVENLLATLPTYLQHMKENNTLLGEDIARLNKTYLLPETAASHVRRIQTELESFEAAIVEVTSNQEEPTQAYSVLEENLEDLQTQLKDIEDEQISVSERLTQIEKDDINARQKANVYVNRLHTIKRYMEKRNLPGIPQTFLKLFFTASNNTEDLMVELEQKMINIESVTRVLEIATNDMEALETETYNIVQYATLTEQLLQYSNRYRSFDERIQEAFNEALDIFEKEFDYHASFDKISQALEVAEPGVTNRFVTSYEKTRETIRF	5.4 ratio		
bPBP2x-HA (enzyme) MKWTKRVIRYATKNRKSPAENRRRVGKSLSLLSVFVFAIFLVNFAVIIGTGTRFGTDLAKEAKKVHQTTRTVPAKRGTIYDRNGVPIAEDATSYNVYAVIDENYKSATGKILYVEKTQFNKVAEVFHKYLDMEESYVREQLSQPNLKQVSFGAKGNGITYANMMSIKKELEAAEVKGIDFTTSPNRSYPNGQFASSFIGLAQLHENEDGSKSLLGTSGMESSLNSILAGTDGIITYEKDRLGNIVPGTEQVSQRTMDGKDVYTTISSPLQSFMETQMDAFQEKVKGKYMTATLVSAKTGEILATTQRPTFDADTKEGITEDFVWRDILYQSNYEPGSTMKVMMLAAAIDNNTFPGGEVFNSSELKIADATIRDWDVNEGLTGGRTMTFSQGFAHSSNVGMTLLEQKMGDATWLDYLNRFKFGVPTRFGLTDEYAGQLPADNIVNIAQSSFGQGISVTQTQMIRAFTAIANDGVMLEPKFISAIYDPNDQTARKSQKEIVGNPVSKDAASLTRTNMVLVGTDPVYGTMYNHSTGKPTVTVPGQNVALKSGTAQIADEKNGGYLVGLTDYIFSAVSMSPAENPDFILYVTVQQPEHYSGIQLGEFANPILERASAMKDSLNLQTTAKALEQVSQQSPYPMPSVKDISPGDLAEELRRNLVQPIVVGTGTKIKNSSAEEGKNLAPNQQVLILSDKAEEVPDMYGWTKETAETLAKWLNIELEFQGSGSTVQKQDVRANTAIKDIKKITLTLGD		3.4 ratio	
